Reference: paper PMC4838342 (Nucleic Acids Research, 2015)

B1: N-330: sNASP truncated at residue 330 (protein, UniProt P49321 1-330, looked up, fragment)
chain: MAMESTATAAVAAELVSADKIEDVPAPSTSADKVESLDVDSEAKKLLGLGQKHLVMGDIPAAVNAFQEAASLLGKKYGETANECGEAFFFYGKSLLELARMENGVLGNALEGVHVEEEEGEKTEDESLVENNDNIDEEAREELREQVYDAMGEKEEAKKTEDKSLAKPETDKEQDSEMEKGGREDMDISKSAEEPQEKVDLTLDWLTETSEEAKGGAAPEGPNEAEVTSGKPEQEVPDAEEEKSVSGTDVQEECREKGGQEKQGEVIVSIEEKPKEVSEEQPVVTLEKQGTAVEVEAESLDPTVKPVDVGGDEPEEKVVTSENEAGKAVL
modifications: sNASP
B2: N-300: sNASP truncated at residue 300 (protein, UniProt P49321 1-300, looked up, fragment)
chain: MAMESTATAAVAAELVSADKIEDVPAPSTSADKVESLDVDSEAKKLLGLGQKHLVMGDIPAAVNAFQEAASLLGKKYGETANECGEAFFFYGKSLLELARMENGVLGNALEGVHVEEEEGEKTEDESLVENNDNIDEEAREELREQVYDAMGEKEEAKKTEDKSLAKPETDKEQDSEMEKGGREDMDISKSAEEPQEKVDLTLDWLTETSEEAKGGAAPEGPNEAEVTSGKPEQEVPDAEEEKSVSGTDVQEECREKGGQEKQGEVIVSIEEKPKEVSEEQPVVTLEKQGTAVEVEAESL
modifications: sNASP

System: MBP H3 116–135
Assay: Pulldown of MBP H3 116–135 by (His)6-sNASP truncations
Assay type: binding
Conditions: (His)6-tagged sNASP truncations, SDS-PAGE, Coomassie, western blotting for MBP
Experimental: Protein was eluted in the same buffer with 250 mM imidazole, but without protease inhibitors. The (His)6 tag was cleaved overnight by TEV protease, whilst concomitantly dialysing to 100 mM sodium chloride, 20 mM Tris–HCl pH 8.0, 1 mM EDTA and 5 mM dithiothreitol. Cleaved protein was further purified by ion-exchange using a ResourceQ column (GE Healthcare) before gel filtration chromatography in 200 mM sodium chloride, 20 mM Hepes-KOH pH 7.6 and 1 mM EDTA using a 26/60 Superdex 200 column (GE Healthcare). The purified protein was concentrated and stored in aliquots at −80°C. Homologues, truncations and point mutants of sNASP were expressed and purified using the same method. MBP-H3 peptide fusions were expressed in bacteria and used as whole cell extracts (epitope mapping) or purified over a Dextrin Sepharose column (GE Healthcare) in one-step purification in 0.5 M sodium chloride, 20 mM Hepes-KOH pH 7.6, 1 mM EDTA and 5 mM dithiothreitol. Concentrated protein was dialysed against 200 mM sodium chloride, 20 mM Hepes-KOH, 1 mM EDTA and 5 mM dithiothreitol and stored in aliquots at −80°C.
Mutations were made in the MBP H3 116–135 construct using a mixture of site-direct mutagenesis and oligo ligation. Whole cell extracts were prepared from bacteria and used as inputs for the pulldown experiments with (His)6-sNASP pre-bound to Nickel-NTA beads (GE Healthcare).
A BsNASP mutantsH3 peptide […]
200 A260 M Elution volume (mL) […]
construct used for NMR (A) Various truncations of (His)6-sNASP were tested for their ability to pull down MBP -H3 116-135 ( W T ) or a scrambled peptide (Sc). […]
separated by SDS-PAGE and stained with Coomassie. […]
western blotting for MBP was also carried out. (B) Domain diagrams of truncations shown in A with TPR motifs in green, the acidic loop region in yellow and the predicted capping region in grey. A summar y of the interaction with MBP-H3 116-135 is shown on the right hand side.
Binding Protein; CR, capping region; TPR, tetratricopeptide repeat; cTPR, contiguous TPR; mcTPR, minimum contiguous […]

Molecule | ability to bind / pull down MBP H3 116–135 | ability to bind / pull down MBP H3 116–135 (listed as truncation at residue 330) | ability to bind / pull down MBP H3 116–135 (listed as Truncating sNASP close to TPR4 at residue 300)
B1 | binds the H3 C-terminal peptide with affinity similar to the full length | retained the interaction | 
B2 | incapable of binding H3 |  | loss of interaction
